In patent US20250011438A1 (INSTITUTE FOR BASIC SCIENCE, published 2025):
Where a chain is given by its changes, count along the chain named. Values belong to the binder of their own block, whether it stands above or below them.

What was measured:
[1] = target: T1, human Tie2 (hTie2), as immobilised in the Octet assay of Example 1.4 (human, UniProt Q02763 349-738, limits assumed); assay: BLI (Octet), hTie2 immobilised on AR2G sensor, antibody as analyte, 1:1 global fit
T1 construct: The protein used was probably a soluble recombinant form, possibly hTie2-Ig3-FNIII(1-3)
T1 sequence (Q02763 349-738 limits assumed): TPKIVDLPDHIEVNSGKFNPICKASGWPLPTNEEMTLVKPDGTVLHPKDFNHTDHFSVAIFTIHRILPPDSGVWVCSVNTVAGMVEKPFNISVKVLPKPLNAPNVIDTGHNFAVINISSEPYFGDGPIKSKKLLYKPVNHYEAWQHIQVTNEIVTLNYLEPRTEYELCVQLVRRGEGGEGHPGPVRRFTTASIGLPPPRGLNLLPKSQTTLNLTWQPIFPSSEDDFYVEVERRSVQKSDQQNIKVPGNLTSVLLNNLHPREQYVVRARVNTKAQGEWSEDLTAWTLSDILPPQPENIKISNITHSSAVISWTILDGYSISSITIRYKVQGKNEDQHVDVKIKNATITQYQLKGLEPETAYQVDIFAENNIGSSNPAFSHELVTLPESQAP
Protocol: (§1) The affinity of mouse monoclonal antibody against hTie2 was measured using Octet® system (ForteBio) where Black 96-well plates (96 well F-type black plates, Greiner) were used. […] After the hydration, hTie2 was diluted in 10 mM sodium acetate, pH 6.0 buffer at a concentration of 10 μg/ml, fixed on AR2G biosensor, and blocked with 1M ethanolamine. The mouse monoclonal anti-Tie2 antibodies were diluted to 50, 25, 12.5, 6.25, 3.125, and 0 nM with 1× kinetic buffer, and subjected to association for 300 seconds and dissociation for 900 seconds.

[2] = target: T2, recombinant human Tie2 Ig3-FNIII(1-3) domains (human, UniProt Q02763 349-738); assay: stated in the HDX-MS sample preparation; how it was measured is not given; HDX-MS sample preparation; hTie2-Ig3-FNIII(1-3) fragment in deuterium labeling buffer; assay not given
T2 construct: also called hTie2-Ig3-FNIII(1-3)
T2 sequence (Q02763 349-738 limits assumed): as above

[3] = target: T2, recombinant human Tie2 Ig3-FNIII(1-3) …; assay: BLI (Octet), antibody immobilised on AR2G sensor, recombinant hTie2 as analyte, 1:1 global fit
Protocol: as §1, with “of humanized anti-Tie2” for “of mouse monoclonal”, “hydration, humanized anti-Tie2 antibody” for “hydration, hTie2”, “The recombinant hTie2 was” for “The mouse monoclonal anti-Tie2 antibodies were”, “300 sec” for “300 seconds”, “900 sec.” for “900 seconds.”

Kd [1]: 0.215 nM
koff [1]: 0.000327 s⁻¹
kon [1]: 1.52e+06 M⁻¹ s⁻¹
B1: mouse anti-Tie2 antibody 11C4 (antibody, V domains shown)
VH: QVQLQQPGADLVRPGASVTLSCKASGYSFTSYWMNWVKQRPGQGLEWIGMIHPSDSETRLNQKFKDKATLTVDKSSSTAYMQLRSPTSEDSAVYYCAGLTIYFDYWGQGTTLTVSS
VL: DIQMTQSPSSLSASLGERVSLTCRASQDIGISLNWLQQEPDGTIKRLIYATSSLDSGVPKRFSGSRSGSDYSLTISSLESEDFVDYYCLQYASSPYTFGGGTKLEIK

Kd [1]: 0.105 nM
koff [1]: 5.53e-05 s⁻¹
kon [1]: 525000 M⁻¹ s⁻¹
B2: mouse anti-Tie2 antibody 4A4 (antibody, V domains shown)
VH: QVQLQQPGAELVRPGASVKLSCKASGYSFTSYWMNWVKQRPGQGLEWIGMIHPSDSETRLNQKFKDKATLTVDKSSSTAYMQLSSPTSEDSAVYYCARGYYFDYWGQGTTLTVSS
VL: B1 VL with S63T, A92V, Y96W

Kd [1]: < 0.001 nM
koff [1]: < 1e-07 s⁻¹
kon [1]: 444000 M⁻¹ s⁻¹
B3: mouse anti-Tie2 antibody 3B2 (antibody, V domains shown)
VH: B2 VH with M81L, Y100N, Y104C
VL: B1 VL with S53I, Y96W

Kd [1]: 0.251 nM
koff [1]: 9.12e-05 s⁻¹
kon [1]: 363000 M⁻¹ s⁻¹
B4: mouse anti-Tie2 antibody 3E12 (antibody, V domains shown)
VH: B2 VH with E10D, R98K, D103G
VL: B1 VL with S53N, Y96P

Kd [1]: 0.0556 nM
koff [1]: 2.13e-05 s⁻¹
kon [1]: 384000 M⁻¹ s⁻¹
Kd [2]: 25 nM
Kd [3]: 0.0269 nM
koff [3]: 1.05e-05 s⁻¹
kon [3]: 558000 M⁻¹ s⁻¹
B5: mouse anti-Tie2 antibody 3H7 (antibody, V domains shown)
VH: B2 VH with K65M, Y100L, F102G, D103N, Y104S, T110L, L111V, S115A
VL: B1 VL

Kd [3]: 7.47 nM
koff [3]: 0.000467 s⁻¹
kon [3]: 62600 M⁻¹ s⁻¹
B6: humanized anti-Tie2 antibody 3H7H11G4 (antibody, V domains shown)
VH: QVQLVQSGAEVKKPGASVKVSCKASGYTFTSYWMNWVRQAPGQGLEWMGMIHPSDSETRLNQKFMDRVTMTRDTSTSTVYMELSSLRSEDTAVYYCARGLYGNSWGQGTLVTVSS
VL: DIQMTQSPSSLSASVGDRVTITCRASQDIGISLNWYQQKPGKAPKRLIYATSSLDSGVPSRFSGSGSGTEFTLTISSLQPEDFATYYCLQYASSPYTFGQGTKVEIK

Kd [3]: 6.59 nM
koff [3]: 0.000517 s⁻¹
kon [3]: 78500 M⁻¹ s⁻¹
B7: humanized anti-Tie2 antibody 3H7H21G4 (antibody, V domains shown)
VH: B6 VH with A40R, M48I
VL: B6 VL

Kd [3]: 39.7 nM
koff [3]: 0.000656 s⁻¹
kon [3]: 16500 M⁻¹ s⁻¹
B8: humanized anti-Tie2 antibody 3H7H22G4 (antibody, V domains shown)
VH: B6 VH with A40R, M48I
VL: B6 VL with Y36L, K39E, S60K

Kd [3]: 96.5 nM
koff [3]: 0.000999 s⁻¹
kon [3]: 10400 M⁻¹ s⁻¹
B9: humanized anti-Tie2 antibody 3H7H12G4 (antibody, V domains shown)
VH: B6 VH
VL: B6 VL with Y36L, K39E, S60K
